Results from article PMC9519379 (Cell Reports Medicine, 2022).

Legend:
[1] = target: SARS-CoV-2 Spike protein Trimer (Wild type) (SARS-CoV-2) (UniProt P0DTC2); assay: single-molecule force spectroscopy
[2] = target: SARS-CoV-2 Spike Trimer (B.1.1.529/Omicron) (SARS-CoV-2) (UniProt P0DTC2); assay: single-molecule force spectroscopy

For “H84T-banana lectin (H84T-BanLec) (from UniProt Q8L5H4 1-141) (designed binder)”, the IC50 [1] was 5.2 nM, the koff [1] was 0.046 s⁻¹ and the kon [1] was 99800 M⁻¹ s⁻¹. For the same substance, the IC50 [2] was 2.6 nM.
